# Assay results: patent US12545899B2, “Luciferase enzymes for use with thermostable luciferins in bioluminescent assays” (Promega Corporation, priority 2018, dated 2026)
# Positions count from the first letter of the chain named. Numbers in names are those of the source.
# B1: C2242E1: SEQ ID NO: 42; H244W+T344A+I396K+S193A+N228D+L305F+S306P+I109V+C38R+F55I+V262A+I422V (protein)
# chain: MADKNILYGPEPFYPLEDGTAGEQMFDALSRYAAIPGRIALTNAHTKENVLYEEILKLSCRLAESFKKYGLKQNDTIAVCSENSLQFFLPVIASLYLGIIVAPVNDKYVERELIHSLGIVKPRIVFCSKNTFQKVLNVKSKLKSIETIIILDLNEDLGGYQCLNNFISQNSDSNLDVKKFKPYSFNRDDQVAAIMFSSGTTGLPKGVMLTHKNIVARFSIAKDPTFGDAINPTSAILTVIPFHWGFGMMTTLGYFTCGFRVALMHTFEEKLFLQSLQDYKVESTLLVPTLMAFLAKSALVEKYDFPHLKEIASGGAPLSKEIGEMVKKRFKLNFVRQGYGLTEATSAVLITPKGDAKPGSTGKIVPLHAVKVVDPTTGKILGPNEPGELYFKGPMKMKGYYNNEEATKAIIDNDGWLRSGDVAYYDNDGHFYIVDRLKSLIKYKGYQVAPAEIEGILLQHPYIVDAGVTGIPDEAAGELPAAGVVVQTGKYLNEQIVQDYVASQVSTAKWLRGGVKFLDEIPKGSTGKIDRKVLRQMLEKHTNGHHHHHHHH
# B2: C2240E2: SEQ ID NO: 40; H244W+T344A+I396K+S193A+N228D+L305F+S306P+I109V+I230F+V335G+I410M (protein)
# chain: B1 chain with R38C, I55F, I230F, A262V, V335G, I410M, V422I
# B3: C2261D1: SEQ ID NO: 52; H244W+T344A+I396K+S193A+N228D+L305F+S306P+I109V+K121Q+V261A+V287I (protein)
# chain: B1 chain with R38C, I55F, K121Q, V261A, A262V, V287I, V422I
# B4: C2261D9: SEQ ID NO: 41; H244W+T344A+I396K+S193A+N228D+L305F+S306P+I109V+C38R+Y108F+T376I (protein)
# chain: B1 chain with I55F, Y108F, A262V, T376I, V422I
# B5: C2260B6: SEQ ID NO: 43; H244W+T344A+I396K+S193A+N228D+L305F+S306P+I109V+Y108F+V261A+N427D+F431V (protein)
# chain: B1 chain with R38C, I55F, Y108F, V261A, A262V, V422I, N427D, F431V
# B6: C2158A3: SEQ ID NO: 45; H244W+T344A+I396K+S193A+N228D+L305F+S306P+I109V+Q487R (protein)
# chain: B1 chain with R38C, I55F, A262V, V422I, Q487R
# B7: C2157D2: SEQ ID NO: 74; H244W+T344A+I396K+S193A+N228D+L305F+S306P+I109V+K107N+T289S (protein)
# chain: MADKNILYGPEPFYPLEDGTAGEQMFDALSRYAAIPGCIALTNAHTKENVLYEEFLKLSCRLAESFKKYGLKQNDTIAVCSENSLQFFLPVIASLYLGIIVAPVNDKYIERELIHSLGIVKPRIVFCSKNTFQKVLNVKSKLKSIETIIILDLNEDLGGYQCLNNFISQNSDSNLDVKKFKPYSFNRDDQVASIMFSSGTTGLPKGVMLTHKNIVARFSIAKDPTFGNAINPTSAILTVIPFHHGFGMMTTLGYFTCGFRVVLMHTFEEKLFLQSLQDYKVESTLLVPTLMAFLAKSALVEKYDLSHLKEIASGGAPLSKEIGEMVKKRFKLNFVRQGYGLTETTSAVLITPKGDAKPGSTGKIVPLHAVKVVDPTTGKILGPNEPGELYFKGPMKMKGYYNNEEATKAIIDNDGWLRSGDIAYYDNDGHFYIVDRLKSLIKYKGYQVAPAEIEGILLQHPYIVDAGVTGIPDEAAGELPAAGVVVQTGKYLNEQIVQDYVASQVSTAKWLRGGVKFLDEIPKGSTGKIDRKVLRQMLEKHTNGHHHHHHHH
# Assay: Luminescence of ATG-3707 variants (second round epPCR) with CS0333
# Format: biochemical
# Settings: BrightGlo buffer, 25° C., 3 min
# Method: Reagent compositions included CS0333 diluted from 20 mM to 2 mM in reaction buffer with 2 mM ATP. […] Reactions were incubated at 25° C. for 3 min, and luminescence was read and then normalized to ATG-3707 activity tested in parallel.
row,Molecule,Luminescence (RLU) BrightGlo
1,B1,5643850 RLU
2,B2,3202900 RLU
3,B3,3436380 RLU
4,B4,4380280 RLU
5,B5,2896240 RLU
6,B6,3392960 RLU

# Same assay, conditions: BrightGlo buffer, normalized to ATG-3707
row,Molecule,Normalized Luminescence BrightGlo
1,B1,1.45
2,B2,0.82
3,B3,0.88
4,B4,1.13
5,B5,0.74
6,B6,0.87

# Same assay, conditions: CellTiterGlo buffer, 25° C., 3 min
row,Molecule,Luminescence (RLU) CellTiterGlo
1,B1,708509 RLU
2,B2,976519 RLU
3,B3,841889 RLU
4,B4,628712 RLU
5,B5,921045 RLU
6,B6,1027180 RLU

# Same assay, conditions: CellTiterGlo buffer, normalized to ATG-3707
row,Molecule,Normalized Luminescence CellTiterGlo
1,B1,1.10
2,B2,1.51
3,B3,1.31
4,B4,0.98
5,B5,1.43
6,B6,1.59

# Same assay, conditions: Detection Reagent buffer, 25° C., 3 min
row,Molecule,Luminescence (RLU) Detection Reagent
1,B1,6604720 RLU
2,B2,6978270 RLU
3,B3,4820920 RLU
4,B4,6890380 RLU
5,B5,6230440 RLU
6,B6,6034440 RLU

# Same assay, conditions: Detection Reagent buffer, normalized to ATG-3707
row,Molecule,Normalized Luminescence Detection Reagent
1,B1,1.28
2,B2,1.35
3,B3,0.93
4,B4,1.34
5,B5,1.21
6,B6,1.17

# Assay: Kinetic analysis of ATG-3707 variants with CS0333
# Format: biochemical
# Settings: BrightGlo
# Method: Additionally, Table 5 (below) includes kinetic analysis of the ATG-3707 variants identified above. Reagent compositions included CS0333 serially diluted 10-fold from 1 mM to 10 fM in reaction buffer with 2 mM ATP. […] Reactions were incubated at 25° C. for 3 min, and luminescence was read and then normalized to ATG-3707 activity tested in parallel. […] Since C2157D2 was selected for improved brightness in CellTiterGlo® buffer over ATG-3707, it still had beneficial properties.
Molecule,Km,Vmax (RLU)
B7,6.31 µM,"3,053,170 RLU"
B1,5.81 µM,"7,021,077 RLU"
B2,3.97 µM,"5,559,638 RLU"
B3,5.92 µM,"4,702,332 RLU"
B4,7.46 µM,"6,903,348 RLU"
B5,4.06 µM,"4,439,047 RLU"
B6,5.15 µM,"4,009,543 RLU"

# Same assay, conditions: Detection Reagent
Molecule,Km,Vmax (RLU)
B7,97.1 µM,"3,677,773 RLU"
B1,109 µM,"5,366,355 RLU"
B2,88.7 µM,"5,831,602 RLU"
B3,79.8 µM,"4,103,451 RLU"
B4,117 µM,"6,756,516 RLU"
B5,68.2 µM,"4,995,834 RLU"
B6,101 µM,"3,944,016 RLU"

# Assay: Brightness of additional luciferase enzyme variants with CS0333
# Format: biochemical
# Settings: Table 7A; 1 mM CS0333; Bright-Glo buffer
# Summary of the method: (§1)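 Each variant at 0.005 mg/ml combined with 1 mM ATP plus 1 mM substrate in Bright-Glo or Detection Reagent buffer; luminescence recorded as relative brightness.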
row,Molecule,"Fold-improvement over ATG3707, CS0333 BG"
1,B7,1.16
2,B1,1.75
3,B2,1.26
4,B3,1.27
5,B4,1.10
6,B5,0.70
7,B6,0.92

# Same assay, conditions: Table 7A; 1 mM CS0333; Detection Reagent buffer
row,Molecule,"Fold-improvement over ATG3707, CS0333 DR"
1,B7,1.52
2,B1,1.63
3,B2,1.21
4,B3,1.24
5,B4,1.43
6,B5,1.00
7,B6,1.15

# Assay: Brightness of additional luciferase enzyme variants with CS0280
# Format: biochemical
# Settings: Table 7A; 1 mM CS0280; Bright-Glo buffer
# Summary of the method: as §1
row,Molecule,"Fold-improvement over ATG3707, CS0280 BG"
1,B7,2.36
2,B1,1.25
3,B2,1.24
4,B3,2.02
5,B4,1.39
6,B5,0.82
7,B6,1.30

# Same assay, conditions: Table 7A; 1 mM CS0280; Detection Reagent buffer
row,Molecule,"Fold-improvement over ATG3707, CS0280 DR"
1,B7,3.08
2,B1,1.56
3,B2,1.39
4,B3,2.41
5,B4,1.89
6,B5,0.97
7,B6,1.49

# Assay: Differential scanning fluorimetry (DSF) analysis
# Format: physicochemical
# Set-up: key to DSF Tm: melting temperature in °C (heated 30-95 °C at 1 °C/min)
# Settings: Table 7A
# Summary of the method: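 Enzymes mixed with Sypro Orange at 5× final, heated 30–95° C at 1° C per minute with fluorescence read every 60 s. Storage buffer 50 mM HEPES pH 7.5, 100 mM NaCl, 2 mM EDTA, or for luciferase variants 20 mM HEPES pH 7.5, 200 mM NaCl, 1 mM EDTA; per-minute fluorescence change plotted against temperature.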
row,Molecule,DSF Tm
1,B7,63
2,B1,54
3,B2,49
4,B3,54
5,B4,61
6,B5,55
7,B6,61
